# In patent US20150044137A1 (UNITED STATES OF AMERICA AS REPRESENTED BY THE SECRETARY …, published 2015):
# B1: VRC16b (antibody, V domains shown)
# VH: EVQLSESGGGVVKPGGSLRLSCEASGFTFSNYAMSWVRQAPGKGLEWVSVTGGHGTYGYYGEFVKGRFTISRDHSMDTVYLQMNRLRVEDTAVYYCVRTPYYHESSGYYYRAGNYFDFWGKGTLVIVSA
# VL: DIQMTQSPSSLSASVGDRVTITCRASQDIANYLNWYQKKSGTPPKLLIFAATNLHRGVSPRFSGSGSGTHFSLTITNVQYEDFANYFCQHSFGTIGTFGQGTWVDIR
# B2: VRC16c (antibody, V domains shown)
# VH: EVQLSESGGGFVKPGGSLRLSCEASGFTFNNYAMSWVRQAPGKGLEWVSVTSAHGGSAYYGEFVKGRFTMSRDHFIDTVYLEMNRLTVEDTAVYYCVRVTFYHEGSGYYYRAGNYFDSWGKGTRVVVSA
# VL: DIQMTQSPSSLSASIGDRVTITCRASQDIANYLNWYQKKSGTPPKLLIFAATNLHRGVSPRFTGSGHGTHFSLTITNVQHEDFGHYFCQQSFATVGSFGQGTWVDIR
# B3: VRC16d (antibody, V domains shown)
# VH: EVQLSESGGGFVKPGGSLRLSCEASGFTFNNYAMSWVRQAPGKGLEWVSVTSAHGGSAYYGEFVKGRFTMSRDHFIDTVYLEMNGLTVEDTAVYYCVRVTFYHEGSGYYYRAGNYFDSWGKGTRVVVSA
# VL: DIQMTQSPSSLSASIGDRVTITCRASQDIANYLNWYQKKSGTPPKLLIFAATNLHRGVSPRFTGSGHGTHFSLTITNVQHEDFGNYFCQQSFATVGSFGQGTWVDIR
# B4: VRC14b (antibody, V domains shown)
# VH: QVQLVQSGTALKSPGSSAKLSCTVLGDEFGTYFISWIRQAPGQGLEWVGGIVPHSQLQSSAQKFHGRITISAGAGVTPPVVSLQLTNLTFEDTGTYFCARERGRHRDPKTGDALRGRYFDFWGRGTGVRVST
# VL: QSALTQPAFVSGSPGQSITLSCTLGTEDVSWYQQRPNSAPRLIIFDVKKRPSDVSDRFSGHNSDTAAFLTISELRPEDEAEYFCTSWPYRFGRGTKVDVA
# B5: VRC14c (antibody, V domains shown)
# VH: QVQLVQSGTALKSPGSSAKLSCTVLGDEFGTYFISWIRQAPGQGLEWVGGIVPHSQLQSSAQKFHGRIIISAGAGVTPPVVSLQLTNLTFEDTGTYFCARERGRHRDPKTGKAPRGRYFDFWGRGTGVTVSA
# VL: QSALTQPAFVSGSPGQSITLSCTLGTEDVSWYQQRPNSAPRLIIFDVKKRPSDVSDRFSGHNSDTAAFLTISELRPEDEADYFCTSWPYRFDRGTKVDVA
# B6: VRC14 (antibody, V domains shown)
# VH: QVQLVQSGTALKSPGSSAKLSCTVLGDEFGTYFISWIRQAPGQGLEWVGGIVPHSQLQSSAQKFHGRIIISAGAGVTPPVVSLQLTNLTFEDTGTYFCARERGRHRDPKTGDALRGRYFDFWGRGTGLRVST
# VL: QSALTQPAFVSGSPGQSITLSCSLGTADVSWYQQRPNSAPRLIIFDVKKRPSDVSDRFSGHNSDTAAFVTISELRPEDEAEYFCTSWPYRFGPGTKVDVAR
# notes: also called mAb VRC14
# B7: VRC13 (antibody, V domains shown)
# VH: QVQLVQPGTAMKSLGSSLTITCRVSGDDLGSFHFGTYFMIWVRQAPGQGLEYMGGILPSTKTPTYAHKFRGRVSISAPGVPPVLSLALTNLTYDDTATYFCARERGRHFEPKNRDNLEGKFFDLWGRGTFVRVSP
# VL: QSALTQPASVSGSPGQSINISCAGRSDRVSWYQQRPNGVPKLLMFDVYRRPSGVSDRFSGSHSGDTAFLTISGLQTEDEADYYCTSHPYAFGAGTKVNVLR
# Columns and labels:
# [1] = biological target: T1, Yu2 gp120 HIV-1 Env protein (HIV-1 (strain Yu2), UniProt P35961 32-498); test: ELISA-type plate assay (OD450), mAb titrated on Yu2 gp120 WT
# T1 construct: domain: gp120
# RSC3 probe [2] = test: ELISA-type plate assay (OD450), mAb titrated on RSC3 [panel VRC14b]
# RSC3 probe [3] = test: ELISA-type plate assay (OD450), mAb titrated on RSC3 [panel VRC14c]
# RSC3 probe [4] = test: ELISA-type plate assay (OD450), mAb titrated on RSC3 [panel VRC14]
# [5] = biological target: T1, Yu2 gp120 HIV-1 Env protein
binder,measurement,setting,value
B1,EC50 (read off the curve),[1],~20 ng/mL
B2,EC50 (read off the curve),[1],~5 ng/mL
B3,EC50 (read off the curve),[1],~5 ng/mL
B4,EC50 (read off the curve),RSC3 probe [2],~7 ng/mL
B5,EC50 (read off the curve),RSC3 probe [3],~20 ng/mL
B6,EC50 (read off the curve),RSC3 probe [4],~6 ng/mL
B7,IC50 (read off the curve),[5],~400 ng/mL
